In the supplement of paper PMC9112550, “Optimization of the antimicrobial peptide Bac7 by deep mutational scanning” (BMC Biology, 2022):

Test system: Escherichia coli TOP10
Test: shrunken log2 fold change of peptide-encoding DNA abundance (4.5 h post-induction vs induction); higher = less antimicrobial activity (less host growth inhibition)
Details: time post-induction: 4.5 h; library: site-saturation at positions 5, 18, 19, 20
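Further: peptides expressed intracellularly from a pBAD plasmid library in pooled LB shake-flask culture, induced with 0.3% L-arabinose, DNA abundance read by NGS, three biological replicates, DESeq2 with apeglm shrinkage.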

Sequence | shrunken log2 fold change
RRIRCRPPRLPRPRPRPMAQPRP | -0.0404
RRIRTRPPRLPRPRPRPALHPRP | -0.19
RRIRCRPPRLPRPRPRPCCPPRP | -0.316
RRIRERPPRLPRPRPRPLLAPRP | 0.173
RRIRIRPPRLPRPRPRPDMQPRP | -0.0983
RRIRGRPPRLPRPRPRPRKIPRP | 0.829
RRIRSRPPRLPRPRPRPKSLPRP | -0.0747
RRIRGRPPRLPRPRPRPERTPRP | 1.21
RRIRMRPPRLPRPRPRPTTFPRP | 0.00693
RRIRDRPPRLPRPRPRPAKIPRP | -0.00511
RRIRFRPPRLPRPRPRPEVGPRP | 0.296
RRIRIRPPRLPRPRPRPVMSPRP | -0.0169
RRIRMRPPRLPRPRPRPSQIPRP | -0.03
RRIRARPPRLPRPRPRPNRFPRP | 0.145
RRIRQRPPRLPRPRPRPWDFPRP | 0.2
RRIRPRPPRLPRPRPRPPYIPRP | -0.251
RRIRSRPPRLPRPRPRPRTIPRP | -0.141
RRIRERPPRLPRPRPRPLYIPRP | -0.668
RRIRYRPPRLPRPRPRPRQQPRP | 0.226
RRIRYRPPRLPRPRPRPKQWPRP | 0.0575
RRIRQRPPRLPRPRPRPINCPRP | -0.384
RRIRGRPPRLPRPRPRPDSHPRP | 0.0299
RRIRRRPPRLPRPRPRPWKCPRP | -0.0487
RRIRNRPPRLPRPRPRPCQHPRP | -0.0585
RRIRWRPPRLPRPRPRPNFIPRP | -0.174

Sequence | shrunken log2 fold change
RRIRFRPPRLPRPRPRPMNIPRP | -0.192
RRIRCRPPRLPRPRPRPSKKPRP | -0.0938
RRIRTRPPRLPRPRPRPAQIPRP | 0.358
RRIRLRPPRLPRPRPRPAHQPRP | -0.0828
RRIRTRPPRLPRPRPRPEGYPRP | -0.104
RRIRCRPPRLPRPRPRPTDRPRP | 0.15
RRIRNRPPRLPRPRPRPDDKPRP | -0.0189
RRIRLRPPRLPRPRPRPWYEPRP | 0.0242
RRIRRRPPRLPRPRPRPFLGPRP | 0.187
RRIRDRPPRLPRPRPRPQSCPRP | -0.0045
RRIRMRPPRLPRPRPRPMMKPRP | 0.0962
RRIRHRPPRLPRPRPRPAPFPRP | -0.257
RRIRNRPPRLPRPRPRPRKGPRP | -0.16
RRIRQRPPRLPRPRPRPYAAPRP | -0.175
RRIRVRPPRLPRPRPRPYAQPRP | 0.0393
RRIRPRPPRLPRPRPRPLDVPRP | -0.146
RRIRTRPPRLPRPRPRPHIFPRP | 2.13
RRIRIRPPRLPRPRPRPGHMPRP | 0.0184
RRIRFRPPRLPRPRPRPERDPRP | -0.0622
RRIRFRPPRLPRPRPRPLTLPRP | -0.337
RRIRLRPPRLPRPRPRPDFWPRP | 0.484
RRIRFRPPRLPRPRPRPDNLPRP | 0.0632
RRIRCRPPRLPRPRPRPKVIPRP | -0.297
RRIRWRPPRLPRPRPRPAAHPRP | 0.167
RRIRTRPPRLPRPRPRPYHQPRP | -0.182

Sequence | shrunken log2 fold change
RRIRPRPPRLPRPRPRPSEYPRP | -0.366
RRIRGRPPRLPRPRPRPDTTPRP | 0.903
RRIRHRPPRLPRPRPRPLSHPRP | -0.00358
RRIRMRPPRLPRPRPRPWSGPRP | -0.0411
RRIRHRPPRLPRPRPRPYMIPRP | -0.025
RRIRSRPPRLPRPRPRPISTPRP | -0.102
RRIRPRPPRLPRPRPRPQYVPRP | -0.184
RRIRIRPPRLPRPRPRPPCCPRP | -0.31
RRIRHRPPRLPRPRPRPARKPRP | -0.164
RRIRKRPPRLPRPRPRPKACPRP | -0.00804
RRIRLRPPRLPRPRPRPRNLPRP | -0.0507
RRIRWRPPRLPRPRPRPGEKPRP | 0.489
RRIRQRPPRLPRPRPRPNHTPRP | -0.0975
RRIRVRPPRLPRPRPRPGLCPRP | 0.0795
RRIRHRPPRLPRPRPRPAHSPRP | 0.0457
RRIRPRPPRLPRPRPRPLQAPRP | 0.496
RRIRVRPPRLPRPRPRPTYHPRP | 1.5
RRIRKRPPRLPRPRPRPPGQPRP | 1.25
RRIRERPPRLPRPRPRPKYRPRP | -0.00726
RRIRARPPRLPRPRPRPMRHPRP | 0.38
RRIRDRPPRLPRPRPRPSFNPRP | -0.68
RRIRVRPPRLPRPRPRPKKWPRP | -0.00649
RRIRNRPPRLPRPRPRPLVFPRP | -0.147
RRIRPRPPRLPRPRPRPVIVPRP | -0.212
RRIRHRPPRLPRPRPRPVKSPRP | -0.0219

Sequence | shrunken log2 fold change
RRIRYRPPRLPRPRPRPATHPRP | -0.318
RRIRLRPPRLPRPRPRPLINPRP | -0.519
RRIRMRPPRLPRPRPRPCTDPRP | -0.132
RRIRNRPPRLPRPRPRPHEFPRP | -0.13
RRIRCRPPRLPRPRPRPFGGPRP | 0.0285
RRIRQRPPRLPRPRPRPVPQPRP | 0.0925
RRIRLRPPRLPRPRPRPATQPRP | 0.00742
RRIRVRPPRLPRPRPRPMNPPRP | -0.421
RRIRHRPPRLPRPRPRPHRWPRP | 0.0507
RRIRARPPRLPRPRPRPCTGPRP | -0.041
RRIRSRPPRLPRPRPRPRYAPRP | -0.0842
RRIRMRPPRLPRPRPRPDDSPRP | 0.175
RRIRSRPPRLPRPRPRPDIYPRP | -0.194
RRIRNRPPRLPRPRPRPFYTPRP | -1.29
RRIRHRPPRLPRPRPRPDWFPRP | -0.00508
RRIRLRPPRLPRPRPRPWKCPRP | -0.391
RRIRPRPPRLPRPRPRPSNEPRP | -0.406
RRIRERPPRLPRPRPRPWERPRP | 0.0496
RRIRWRPPRLPRPRPRPTNAPRP | 0.0747
RRIRKRPPRLPRPRPRPPGWPRP | 0.675
RRIRPRPPRLPRPRPRPKGYPRP | -0.13
RRIRCRPPRLPRPRPRPDLSPRP | 0.0851
RRIRIRPPRLPRPRPRPGQMPRP | -0.0223
RRIRKRPPRLPRPRPRPSLRPRP | -0.278
RRIRLRPPRLPRPRPRPIYDPRP | -1

Sequence | shrunken log2 fold change
RRIRLRPPRLPRPRPRPYQHPRP | -0.661
RRIRTRPPRLPRPRPRPMYWPRP | -0.131
RRIRLRPPRLPRPRPRPKCQPRP | -0.319
RRIRQRPPRLPRPRPRPQLHPRP | -0.237
RRIRDRPPRLPRPRPRPERCPRP | 0.426
RRIRARPPRLPRPRPRPEGRPRP | 2.11
RRIRLRPPRLPRPRPRPQIQPRP | -0.0697
RRIRPRPPRLPRPRPRPACPPRP | 0.147
RRIRHRPPRLPRPRPRPPCNPRP | -0.221
RRIRCRPPRLPRPRPRPWMFPRP | -0.453
RRIRNRPPRLPRPRPRPCSIPRP | -0.000921
RRIRWRPPRLPRPRPRPNECPRP | -0.437
RRIRRRPPRLPRPRPRPNQIPRP | -0.349
RRIRGRPPRLPRPRPRPTNHPRP | 0.169
RRIRSRPPRLPRPRPRPIPWPRP | -0.121
RRIRYRPPRLPRPRPRPAKQPRP | -0.168
RRIRMRPPRLPRPRPRPRDSPRP | 0.117
RRIRHRPPRLPRPRPRPNNPPRP | -0.874
RRIRCRPPRLPRPRPRPPMPPRP | 0.45
RRIRMRPPRLPRPRPRPPFVPRP | 0.267
RRIRWRPPRLPRPRPRPGHNPRP | 0.31
RRIRNRPPRLPRPRPRPDLMPRP | 3.21
RRIRQRPPRLPRPRPRPFGIPRP | -0.138
RRIRCRPPRLPRPRPRPTLNPRP | -0.232
RRIRLRPPRLPRPRPRPRSLPRP | 0.0255

Sequence | shrunken log2 fold change
RRIRTRPPRLPRPRPRPGYLPRP | 0.0359
RRIRKRPPRLPRPRPRPCKLPRP | -0.144
RRIRHRPPRLPRPRPRPVRCPRP | 0.592
RRIRHRPPRLPRPRPRPHFIPRP | -0.499
RRIRCRPPRLPRPRPRPYKYPRP | -0.551
RRIRQRPPRLPRPRPRPELDPRP | 0.0346
RRIRCRPPRLPRPRPRPYIRPRP | -1.22
RRIRTRPPRLPRPRPRPWMFPRP | -0.355
RRIRYRPPRLPRPRPRPMHFPRP | -0.00783
RRIRCRPPRLPRPRPRPDDWPRP | 0.104
RRIRIRPPRLPRPRPRPIKSPRP | -0.462
RRIRCRPPRLPRPRPRPNYHPRP | -0.93
RRIRGRPPRLPRPRPRPERPPRP | 1.28
RRIRARPPRLPRPRPRPHVQPRP | 0.00547
RRIRFRPPRLPRPRPRPQTVPRP | -0.211
RRIRSRPPRLPRPRPRPWHMPRP | 0.17
RRIRARPPRLPRPRPRPIADPRP | 0.394
RRIRYRPPRLPRPRPRPTNMPRP | -0.541
RRIRHRPPRLPRPRPRPYNNPRP | -0.819
RRIRIRPPRLPRPRPRPHQTPRP | 0.0701
RRIRARPPRLPRPRPRPQAIPRP | 0.281
RRIRTRPPRLPRPRPRPDDRPRP | 0.0143
RRIRVRPPRLPRPRPRPEIDPRP | 0.135
RRIRQRPPRLPRPRPRPAGDPRP | 0.127
RRIRNRPPRLPRPRPRPNFIPRP | -0.105
